# Measured values taken from PMC7156267, “Cryo-EM structures of S-OPA1 reveal its interactions with membrane and changes upon nucleotide binding” (eLife, 2020).
# Molecular target: the molecule itself
# Experiment: SEC; Superdex 200 10/300 GL, column pre-calibrated with molecular weight markers; 20 mM Tris-HCl pH 8.0, 150 mM NaCl, 1 mM DTT; self-association in solution
protein,measurement,value
"S-OPA1 (short S1 isoform of human OPA1, splice form 1), wild type (natural protein, UniProt O60313 196-960, looked up, Optic atrophy 1 (OPA1), human, splice form 1 (isoform 1); Dimer in solution by gel filtration, BS3 cross-linking and SEC-MALS; The first residue is worked out from the S1 site (195th residue) and the name of the deletion Δ196-252; also called WT; full-length S-OPA1; source: E. coli Transetta (DE3), purified (Ni-NTA, PreScission cleavage, Superdex 200 gel filtration); not shown: Trx, N-terminal, …) TDRGSESDKHFRKVSDKEKIDQLQEELLHTQLKYQRILERLEKENKELRKLVLQKDDKGIHHRKLKKSLIDMYSEVLDVLSDYDASYNTQDHLPRVVVVGDQSAGKTSVLEMIAQARIFPRGSGEMMTRSPVKVTLSEGPHHVALFKDSSREFDLTKEEDLAALRHEIELRMRKNVKEGCTVSPETISLNVKGPGLQRMVLVDLPGVINTVTSGMAPDTKETIFSISKAYMQNPNAIILCIQDGSVDAERSIVTDLVSQMDPHGRRTIFVLTKVDLAEKNVASPSRIQQIIEGKLFPMKALGYFAVVTGKGNSSESIEAIREYEEEFFQNSKLLKTSMLKAHQVTTRNLSLAVSDCFWKMVRESVEQQADSFKATRFNLETEWKNNYPRLRELDRNELFEKAKNEILDEVISLSQVTPKHWEEILQQSLWERVSTHVIENIYLPAAQTMNSGTFNTTVDIKLKQWTDKQLPNKAVEVAWETLQEEFSRFMTEPKGKEHDDIFDKLKEAVKEESIKRHKWNDFAEDSLRVIQHNALEDRSISDKQQWDAAIYFMEEALQARLKDTENAIENMVGPDWKKRWLYWKNRTQEQCVHNETKNELEKMLKCNEEHPAYLASDEITTVRKNLESRGVEVDPSLIKDTWHQVYRRHFLKTALNHCNLCRRGFYYYQRHFVDSELECNDVVLFWRIQRMLAITANTLRQQLTNTEVRRLEKNVKEVLEDFAEDGEKKIKLLTGKRVQLAEDLKKVREIQEKLDAFIEALHQEK",stoichiometry N,2
